Blank lines part the entries; values can stand above or below the binder they belong to.
Target: T1, human LgR5 (human, UniProt O75473 22-907)
T1 construct: This one molecule is used for transfected 293 cells and for endogenous LgR5 in human cells and tissues; also called leucine-rich repeat-containing G protein-coupled receptor 5
T1 sequence: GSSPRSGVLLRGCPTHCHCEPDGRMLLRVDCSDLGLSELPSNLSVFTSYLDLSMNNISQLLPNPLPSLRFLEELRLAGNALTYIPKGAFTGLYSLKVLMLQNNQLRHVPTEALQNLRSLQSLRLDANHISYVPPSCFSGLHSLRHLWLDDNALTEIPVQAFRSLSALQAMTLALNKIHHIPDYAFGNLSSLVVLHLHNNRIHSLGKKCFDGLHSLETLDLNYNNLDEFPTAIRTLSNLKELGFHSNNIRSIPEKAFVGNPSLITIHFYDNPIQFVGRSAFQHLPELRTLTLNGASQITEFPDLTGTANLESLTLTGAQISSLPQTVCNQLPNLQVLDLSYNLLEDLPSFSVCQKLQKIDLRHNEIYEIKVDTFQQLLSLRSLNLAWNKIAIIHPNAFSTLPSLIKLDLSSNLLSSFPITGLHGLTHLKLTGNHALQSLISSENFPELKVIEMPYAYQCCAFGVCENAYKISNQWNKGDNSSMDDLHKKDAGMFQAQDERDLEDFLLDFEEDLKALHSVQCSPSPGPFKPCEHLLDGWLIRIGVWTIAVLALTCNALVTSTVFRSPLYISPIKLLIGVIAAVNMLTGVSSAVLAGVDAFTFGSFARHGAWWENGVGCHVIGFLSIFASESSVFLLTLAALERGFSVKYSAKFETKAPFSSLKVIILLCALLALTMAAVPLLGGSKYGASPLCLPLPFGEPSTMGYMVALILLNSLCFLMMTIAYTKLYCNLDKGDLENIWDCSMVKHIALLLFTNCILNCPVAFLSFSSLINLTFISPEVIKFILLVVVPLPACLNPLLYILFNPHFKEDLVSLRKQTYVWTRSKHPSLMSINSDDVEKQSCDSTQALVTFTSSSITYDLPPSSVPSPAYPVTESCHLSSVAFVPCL
Assay: IHC on SW403 colon cancer cell line
Method: Staining with antibody LGR5.26-1 was compared to staining with antibody LGR5.1-12 in CXF233 (human colon tumor model; Oncotest) xenograft tumors and in various colon cancer cell lines. Immunohistochemistry (IHC) for Lgr5 was performed on a Dako Universal Autostainer (Dako, Carpinteria, Calif.). Briefly, formalin-fixed, paraffin-embedded tumor tissue were deparaffinized and antigen unmasking was performed in a PT Module (Thermo Scientific, Kalamazoo, Mich.) with Target Retrieval pH 6 (Dako) at 99° C. for 20 minutes. Endogenous peroxidase was inhibited with treatment of 3% H202 in PBS for 4 minutes and endogenous biotin was blocked using the Avidin/Biotin blocking kit (Vector Labs, Burlingame, Calif.). Endogenous IgGs were blocked using 10% donkey serum in 3% BSA/PBS and primary antibody to Lgr5 (LGR5.1-12 or 26-1) was incubated at 4 μg/ml for 60 minutes at room temperature. […] Antibody binding was detected with Metal enhanced DAB (Pierce Rockford, Ill.) for 5 minutes at room temperature and sections were counterstained with Mayer's Hematoxylin (Rowley Biochemical, Danvers, Mass.).
Each cell line was also characterized by lgr5 gene expression using RNAseq data into the following levels of expression: none, very low, low, moderate, and high. In addition, LgR5 levels were determined in the cell lines by IHC, substantially as described above.

binding result: binds
B1: antibody LGR5.26-1 (antibody, V domains shown)
VH: QSLEESGGDLVKPGGTLTLTCTASGIDFSYYSYMCWVRQAPGKGLEWIACIYAGTSGSTYYASWAKGRFTISKTSSTTVTLQMISLTAADTATYFCARSYYTFGVNGYAWDLWGPGTLVTVSS
VL: AFELTQTPSSVEAAVGGTVTIKCQASQSISVGLAWYQQKPGQPPKLLIYKASTLASGVPSRFKGSRSGTEFTLTISDLECADAATYYCQSYYDSSTTANVFGGGTEVVVKG
notes: also called αLgR5.26-1; antibody 26-1

binding result: binds
B2: antibody LGR5.1-12 (antibody, V domains shown)
VH: QSLEESGGGLVQPEGSLTLTCTASGFSFSRTYWICWDRQAPGKGLEWIACIYAGGSDNTYYASWAKGRFTISKTSSTTVTLQVTSLTAADTATYFCARYYAGSSEYFNLWGPGTLVTVSS
VL: AYDMTQTPASVEVAVGGTVTIKCQASQSIGSNLAWYQQKPGQPPKLLIYGASNLASGVSSRFKGSGSGTEFTLTISDLECADAATYYCQTTYGSSSDGFFWTFGGGTEVVVKG
notes: also called αLgR5.1-12; antibody 1-12
